Test results from patent US9725702B2, “Laccase from ganoderma lucidum capable of enhancing enzymatic degradation of lignocellulolytic biomass” (DANMARKS TEKNISKE UNIVERSITET, priority 2012, dated 2017).

Assays:
[1] = Temperature stability of LacGL1 laccase at pH 4.7; assay type: physicochemical; settings: for activity retained: pH 4.7
Protocol: FIG. 9. The temperature stability profile of LacGL1 laccase as a function of LN [U/mL] vs. incubation time at pH 4.7 and 0.1 M citrate-phosphate buffer. […] The relative difference between single measurements was <5%.
FIG. 10. LacGL1 laccase stability evolution plot at optimum pH of 4.7 and two different temperature values (40° C. and 50° C.). Since the plot is a continuation of temperature stability plot (FIG. 9), the first measurement is given after 1 h. Laccase residual activity [%] is calculated based on activity value of laccase measured at pH 4.7 and 25° C. The relative difference between single measurements was <5%.
The predicted optimal conditions for the LacGL1 laccase activity were validated by measuring the effect of temperature on the relative activity of LacGL1 laccase at pH 4.7. […] (FIG. 10).

[2] = Laccase activity assay with ABTS; influence of pH and temperature; assay type: biochemical
Excerpt: FIG. 8. A surface response plot of the relative activity (U/mL) of the LacGL1 laccase expressed in Pichia pastoris as a function of pH and temperature. The effect of the pH and temperature on the LacGL1 laccase activity, expressed from P. pastoris, was modeled via randomized, full factorial, statistically designed experiment—MODDE program version 7.0.0.1 (Umetrics, Umeå, Sweden). The statistical design consisted of 12 experiments, including a triplicate repetition at the center point (pH 5 and 40° C.), using ABTS as a substrate. The influence of the temperature and pH was monitored between 25-55° C. and pH 4-6 (for 0.1 M citrate-phosphate buffer), respectively. The mixture with the ABTS and buffer at the defined pH value was incubated for 5 min. in a thermocycler set to a desired temperature and afterwards added to a previously pre-diluted enzyme in a microtiter plate which was incubated for 1 min. in a microtiter plate reader set to a desired temperature. After mixing the substrate and buffer with the enzyme, the initial rate of the product formation was measured as described above. The volumes and concentrations of enzyme, substrate, and buffer were identical as for the laccase activity assay.
The laccase activity was measured based on a modified method of Ters et al. (2009). The laccase activity was defined as the amount of the enzyme required to oxidise 1 μmol of ABTS per minute at 25° C., and pH 4.7. The assay mixture contained: 0.1 M citrate-phosphate buffer (255 μL, pH 4.7), ABTS (5 μL, 4 mM (ABTS stock solution)), and pre-diluted laccase (5 μL) that ensured the linear range of Michaelis-Menten kinetics. The oxidation of ABTS was monitored at 420 nm (ε420=36800 M^−1cm^−1) for 2 min. in an Infinite 200 microtiter plate reader (Tecan, Salzburg, Austria). Laccase activity assays on the substrates: hydroquinone (248 nm), 2.6-dimethoxyphenol (470 nm), and guaiacol (436 nm) was done similarly with the substrate concentration as described in Table 2 using the following extinction coefficient values: 17.542 M^−1cm^−1, 35.645 M^−1cm^−1, and 6.400 M^−1cm^−1, respectively (Minussi et al. 2007). The data collection was monitored by the program Tecan i-control version 1.5.14.0 (Tecan, Salzburg, Austria). The calculated laccase activity was corrected by the absorbance of a control sample which contained: 0.1 M citrate-phosphate buffer (255 μL, pH 4.7), ABTS (5 μL, 4 mM), and 5 μL of distilled water instead of the enzyme. […]
The effect of the pH and temperature on the LacGL1 laccase activity was determined with a statistically designed, randomized, full factorial experiment as described in FIG. 8. The relative laccase activity was calculated based on the LacGL1 activity at pH 4.7 and 25° C. […]

B1: LacGL1: Fungal laccase from Ganoderma lucidum CBS229.93 (SEQ ID NO: 5/9), recombinantly expressed in Pichia pastoris X-33 (protein, listed as Ganoderma lucidum)
chain: GIGPKTDLTISNADVAPDGYTRAAVVVNGVFPAPLITGNKGDRFQLNVIDQMTNHTMLKSTSIHWHGFFQKGTNWADGPAFINQCPISSGHSFLYDFQVPDQAGTFWYHSHLSTQYCDGLRGPFVVYDPKDPLKKLYDIDDDSTVITLTDWYHVAARLGPRFPLGSDSTLINGLGRSTTNVTADLAVINVTQGKRYRFRLVSLSCDPNYTFSIDDHNMTVIEADGIETQPVTVNAIQIFSAQRYSFVLTANQTIDNYWIRANPNFGNVGFTDGINSAILRYAGADPVEPTTSQQTTQNLLNEVDLHPFVPKRTPGQPTQGGVDTAINMVFNFNGSNFFINNASFVPPTVPVLLQILSGAQAAQDLLPSGSVYTLPVNKSIELTFPATANAPGAPHPFHLHGHAFAVVRSAGSTVYNYDNPVWRDVVSTGTPAAGDNVTIRFQTDNPGPWFLHCHIDFHLEAGFAVVFAEDPTDTSLANPVPKAWSDLCPTYDALSVDDQ
modifications: mat_peptide (1)..(499) Mature LacGL1 laccase (minus signal peptide)
With B1 the change of activity ([1]; 25, 40 and 50° C., pH 4.7, within an hour) was “did not change significantly”, the laccase activity remaining ([1]; 60° C., pH 4.7, within an hour) was 19% and the laccase activity remaining ([1]; 70° C., pH 4.7, within an hour) was 3%. For the same molecule, the activity retained ([1]; after 5 h at 50° C.) was 23%, the activity retained ([1]; after 24 h at 40° C.) was 33% and the laccase activity ([2]; expressed by recombinant P. pastoris, after sterile filtration, ABTS, 25° C., pH 4.7) was 17.5 U/mL. The “temperature at which activity is highest” value ([2]; pH 4.7) was 40-50 °C, the “temperature optimum (predicted, highest relative activity)” value ([2]; pH 4.7, ABTS, factorial model 25-55° C.) was 55 °C and the “pH optimum (highest relative activity)” value ([2]; substrate ABTS) was 4.7.
